According to CN106467574A (UNIV FUDAN, dated 2017):

How the values were obtained:
[1] = target: 人源TF, 细胞表面TF (human tissue factor on the surface of human tumour cells) (human, UniProt P13726 33-295); assay: cell-based or functional assay
[2] = target: T1, 鼠源TF (mouse tissue factor on B16-F10 cells) (mouse, UniProt P20352 29-294); assay: flow cytometry on B16-F10 cells
T1 construct: whole, on cells
T1 sequence (looked up): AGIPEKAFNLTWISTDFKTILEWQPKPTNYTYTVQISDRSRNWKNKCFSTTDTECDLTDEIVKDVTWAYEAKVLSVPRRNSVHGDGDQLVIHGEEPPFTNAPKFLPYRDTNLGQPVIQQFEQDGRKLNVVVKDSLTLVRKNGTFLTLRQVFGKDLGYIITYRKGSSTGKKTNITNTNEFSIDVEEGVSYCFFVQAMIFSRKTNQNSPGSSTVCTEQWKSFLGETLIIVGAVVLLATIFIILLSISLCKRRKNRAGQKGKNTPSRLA

抗FXa生成活性 IC50 (BxPC-3 cells) [1]: 9 nM
抗FXa生成活性 IC50 (MDA-MB-231 cells) [1]: 6.4 nM
binding result [2]: no binding (tested: 10μg/mL)
B1: TF-mAb-SC1 (antibody, IgG2b, V domains shown)
VH: QVQLQQPGAELVRPGASVKLSCKASGYSFISYWMNWVKQRPGQGLEWIGMIYPADSETRLNQKFKDKATLTVDKSSSTAYMQLSSPTSEDSAVYYCAREDYGSSDYWGQGTTLTVSS
VL: EILLTQSPAIIAASPGEKVTITCSASSSVSYMNWYLQKPGSSPKIWIYGISNLASGVPARFSGSGSGTSFSFTINSMETEDVATYYCQQKSSFPWTFGGGTKLEIK
notes: Mouse monoclonal antibody from a hybridoma, purified from ascites
